In article PMC9919667:

Key:
[1] = biological target: asialofetuin (ASF) (bovine (from fetal calf serum)) (UniProt P12763); assay: ELISA; ASF (5 µg/mL, 200 µL/well) adsorbed on Maxisorp plates; IMAC-purified galectin 0-30 µM in PBS, 1 h; peroxidase-conjugated anti-His6 antibody, TMB; apparent KD, one-site saturation fit; binding efficiency = Bmax/KD
[2] = biological target: fibronectin (from human plasma) (human) (UniProt P02751); assay: ELISA; laminin, fibronectin or collagen IV (5 µg/mL, 100 µL/well) adsorbed on Maxisorp plates; galectin 0-10 µM, 1 h; peroxidase-conjugated anti-His6 antibody, TMB; apparent KD, one-site saturation fit
[3] = biological target: collagen IV (from human placenta) (human); assay: as above
Sequence of collagen IV (from human placenta) (human) (P02462 173-1669, chain 1 of 2): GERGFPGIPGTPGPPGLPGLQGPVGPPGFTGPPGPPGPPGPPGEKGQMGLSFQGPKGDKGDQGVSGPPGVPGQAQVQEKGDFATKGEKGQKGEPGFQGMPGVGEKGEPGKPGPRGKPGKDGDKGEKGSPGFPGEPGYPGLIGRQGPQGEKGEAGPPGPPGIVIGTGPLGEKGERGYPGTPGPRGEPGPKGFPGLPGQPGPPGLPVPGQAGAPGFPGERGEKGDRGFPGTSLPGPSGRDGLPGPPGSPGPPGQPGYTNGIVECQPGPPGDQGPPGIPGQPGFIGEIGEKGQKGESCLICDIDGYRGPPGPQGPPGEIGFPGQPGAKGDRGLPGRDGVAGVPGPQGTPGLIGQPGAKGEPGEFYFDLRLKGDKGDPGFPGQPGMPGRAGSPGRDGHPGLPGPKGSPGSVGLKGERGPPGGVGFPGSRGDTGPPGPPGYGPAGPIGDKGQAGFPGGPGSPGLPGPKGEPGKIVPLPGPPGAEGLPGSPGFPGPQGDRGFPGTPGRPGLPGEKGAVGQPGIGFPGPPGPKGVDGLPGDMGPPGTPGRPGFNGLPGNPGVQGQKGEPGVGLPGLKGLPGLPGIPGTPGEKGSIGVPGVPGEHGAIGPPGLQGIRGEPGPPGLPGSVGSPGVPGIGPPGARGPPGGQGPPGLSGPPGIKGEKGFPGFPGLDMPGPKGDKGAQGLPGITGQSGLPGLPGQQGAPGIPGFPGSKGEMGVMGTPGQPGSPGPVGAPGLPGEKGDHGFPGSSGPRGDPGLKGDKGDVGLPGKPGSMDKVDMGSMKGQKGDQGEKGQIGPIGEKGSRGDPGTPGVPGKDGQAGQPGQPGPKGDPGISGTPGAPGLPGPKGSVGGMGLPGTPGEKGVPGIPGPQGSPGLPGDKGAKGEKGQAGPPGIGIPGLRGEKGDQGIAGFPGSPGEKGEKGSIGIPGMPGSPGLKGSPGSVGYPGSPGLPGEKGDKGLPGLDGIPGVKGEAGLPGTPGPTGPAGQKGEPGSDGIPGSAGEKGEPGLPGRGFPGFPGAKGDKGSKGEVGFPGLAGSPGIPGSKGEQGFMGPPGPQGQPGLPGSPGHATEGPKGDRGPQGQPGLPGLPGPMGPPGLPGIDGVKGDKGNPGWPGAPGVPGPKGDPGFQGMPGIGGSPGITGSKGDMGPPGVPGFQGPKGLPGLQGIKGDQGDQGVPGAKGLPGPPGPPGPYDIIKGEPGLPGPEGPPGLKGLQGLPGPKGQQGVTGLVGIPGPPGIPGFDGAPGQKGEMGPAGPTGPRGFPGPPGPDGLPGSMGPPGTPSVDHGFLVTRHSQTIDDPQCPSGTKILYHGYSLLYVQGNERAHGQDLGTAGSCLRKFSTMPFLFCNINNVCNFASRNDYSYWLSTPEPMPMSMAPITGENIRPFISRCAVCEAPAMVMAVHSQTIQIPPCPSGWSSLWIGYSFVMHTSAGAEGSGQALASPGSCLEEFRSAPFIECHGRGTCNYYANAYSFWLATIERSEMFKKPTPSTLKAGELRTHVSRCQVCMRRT
Sequence of collagen IV (from human placenta) (human) (P08572 184-1712, chain 2 of 2, further chain): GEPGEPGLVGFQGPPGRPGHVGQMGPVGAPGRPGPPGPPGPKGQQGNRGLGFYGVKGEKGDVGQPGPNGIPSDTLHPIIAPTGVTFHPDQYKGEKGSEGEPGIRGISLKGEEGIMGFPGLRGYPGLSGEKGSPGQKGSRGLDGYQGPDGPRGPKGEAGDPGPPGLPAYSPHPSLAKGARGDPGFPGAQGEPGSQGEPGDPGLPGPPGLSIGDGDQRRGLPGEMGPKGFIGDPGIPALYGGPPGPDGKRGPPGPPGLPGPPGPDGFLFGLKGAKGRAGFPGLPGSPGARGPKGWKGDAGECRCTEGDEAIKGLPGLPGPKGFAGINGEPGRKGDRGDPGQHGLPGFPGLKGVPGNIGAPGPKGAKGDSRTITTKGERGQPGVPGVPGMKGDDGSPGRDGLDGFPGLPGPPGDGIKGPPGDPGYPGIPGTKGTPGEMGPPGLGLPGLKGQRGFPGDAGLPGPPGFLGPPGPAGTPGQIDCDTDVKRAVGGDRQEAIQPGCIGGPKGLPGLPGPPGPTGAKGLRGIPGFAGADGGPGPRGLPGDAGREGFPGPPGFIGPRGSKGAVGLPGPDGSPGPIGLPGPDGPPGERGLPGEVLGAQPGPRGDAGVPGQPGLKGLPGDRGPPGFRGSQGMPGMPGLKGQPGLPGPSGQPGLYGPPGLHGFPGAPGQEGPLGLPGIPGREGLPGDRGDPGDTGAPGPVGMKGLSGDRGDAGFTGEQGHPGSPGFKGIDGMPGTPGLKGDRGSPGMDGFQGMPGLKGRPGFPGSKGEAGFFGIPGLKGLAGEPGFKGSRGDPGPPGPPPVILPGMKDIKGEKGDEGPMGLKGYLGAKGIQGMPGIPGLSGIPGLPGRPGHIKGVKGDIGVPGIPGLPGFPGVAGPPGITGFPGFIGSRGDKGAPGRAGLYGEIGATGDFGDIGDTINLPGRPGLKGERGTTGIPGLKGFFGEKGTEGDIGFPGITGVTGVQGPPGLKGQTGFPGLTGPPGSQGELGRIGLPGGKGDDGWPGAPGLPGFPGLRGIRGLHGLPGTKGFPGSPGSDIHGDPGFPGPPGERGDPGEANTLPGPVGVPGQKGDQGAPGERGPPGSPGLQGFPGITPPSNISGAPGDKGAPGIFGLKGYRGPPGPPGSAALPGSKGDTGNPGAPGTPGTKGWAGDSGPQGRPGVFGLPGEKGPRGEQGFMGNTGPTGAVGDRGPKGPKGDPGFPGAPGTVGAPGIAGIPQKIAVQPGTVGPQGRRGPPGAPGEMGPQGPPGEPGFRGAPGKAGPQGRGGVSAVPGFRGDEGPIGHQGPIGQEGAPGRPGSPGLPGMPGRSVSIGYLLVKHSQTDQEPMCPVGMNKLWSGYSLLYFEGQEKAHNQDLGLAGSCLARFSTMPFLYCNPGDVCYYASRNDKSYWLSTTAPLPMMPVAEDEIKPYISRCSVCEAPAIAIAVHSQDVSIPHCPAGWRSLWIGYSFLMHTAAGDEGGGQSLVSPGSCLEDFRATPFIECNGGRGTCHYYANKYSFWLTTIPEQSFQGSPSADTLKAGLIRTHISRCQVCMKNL

[4] = biological target: laminin (from Engelbreth-Holm-Swarm sarcoma) (not stated (Engelbreth-Holm-Swarm sarcoma; detected with an anti-mouse-laminin antibody)); assay: as above
[5] = biological target: fetuin (bovine (from fetal calf serum)) (UniProt P12763); assay: affinity chromatography on glycoprotein-Sepharose column; ASF or fetuin coupled to CNBr-activated Sepharose 4 Fast Flow (1 mL column); 0.2 µmol of galectin IMAC eluate applied, 15 min incubation, PBS pH 7.5, washed with 10 column volumes, eluted with a 0-0.3 M lactose gradient; eluted amount by Bradford assay; repeated three times
Sequence of fetuin (bovine (from fetal calf serum)) (P12763 19-359): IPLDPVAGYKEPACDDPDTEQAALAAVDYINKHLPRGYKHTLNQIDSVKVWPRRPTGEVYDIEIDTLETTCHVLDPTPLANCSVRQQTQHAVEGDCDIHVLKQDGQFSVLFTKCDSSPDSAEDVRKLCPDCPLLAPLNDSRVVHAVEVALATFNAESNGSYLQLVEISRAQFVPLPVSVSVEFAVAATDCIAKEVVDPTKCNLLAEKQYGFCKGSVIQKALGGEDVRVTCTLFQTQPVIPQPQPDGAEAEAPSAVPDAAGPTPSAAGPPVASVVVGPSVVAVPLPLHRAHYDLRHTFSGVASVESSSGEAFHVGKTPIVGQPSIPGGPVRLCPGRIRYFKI

[6] = biological target: asialofetuin (ASF) (bovine (from fetal calf serum)) (UniProt P12763); assay: as above
[7] = biological target: HSYGal-3 (His6-SNAP-yellow fluorescent protein-Gal-3) (human) (UniProt P17931); assay: ELISA; crosslinking assay: ASF adsorbed on Maxisorp plates, saturating galectin (50 µM Gal-1C2S, 25 µM Gal-3, 40 µM Gal-8N) bound for 1 h at room temperature, then laminin, fibronectin or collagen IV 0-50 µM for 1 h; detected with anti-ECM-protein antibodies and peroxidase-conjugated secondary antibodies; apparent KD, one-site saturation fit
[8] = biological target: HGal-3 (His6-Gal-3) (human) (UniProt P17931); assay: as above
[9] = biological target: HGal-1C2S (His6-Gal-1 C2S) (human) (UniProt P09382); assay: as above
[10] = biological target: HGal-8N (His6-Gal-8N, N-terminal domain of galectin-8) (human) (UniProt O00214); assay: as above
Sequence of HGal-8N (His6-Gal-8N, N-terminal domain of galectin-8) (human) (O00214 1-160): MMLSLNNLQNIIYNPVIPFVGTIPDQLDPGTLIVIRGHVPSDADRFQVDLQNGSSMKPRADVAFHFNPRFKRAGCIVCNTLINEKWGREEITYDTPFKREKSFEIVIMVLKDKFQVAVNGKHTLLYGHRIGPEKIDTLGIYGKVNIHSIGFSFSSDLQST

[11] = biological target: HSeGFPGal-8N (His6-SNAP-eGFP-Gal-8N) (human) (UniProt O00214); assay: as above
Sequence of HSeGFPGal-8N (His6-SNAP-eGFP-Gal-8N) (human) (O00214 1-160): as above

[12] = biological target: HSDsRedMGal-1C2S (His6-SNAP-DsRedM-Gal-1C2S) (human) (UniProt P09382); assay: as above

Sequence of asialofetuin (ASF) (bovine (from fetal calf serum)) (P12763 19-359): as the sequence (P12763 19-359) above
Sequence of HGal-8N (His6-Gal-8N, N-terminal domain of galectin-8) (O00214 1-160): as the sequence (O00214 1-160) above
Sequence of HSeGFPGal-8N (His6-SNAP-eGFP-Gal-8N) (O00214 1-160): as above

Kd [1] [nM] | apparent binding efficiency (Bmax/KD) [1] [µM⁻¹] | Kd [2] [nM] | Kd [4] [nM] | Substance | also measured
8800 | 0.1 |  |  | HDsRedMGal-1C2S (His6-DsRedM-Gal-1C2S, without SNAP-tag) (from UniProt P09382 1-135) (natural protein) | 
500 | 1.6 | 1970 | 420 | HGal-1C2S (His6-Gal-1 C2S) (from UniProt P09382 1-135) (natural protein) | Kd [3]: 1340 nM; percent of applied galectin bound and eluted [5]: 30%; percent of applied galectin bound and eluted [6]: 70%
 |  | 430 | 130 | HGal-3 (His6-Gal-3) (from UniProt P17931 1-250) (natural protein) | 
 |  |  |  | HGal-8C (His6-Gal-8C, C-terminal domain of galectin-8) (from UniProt O00214 182-317) (domain or fragment) | percent of applied galectin bound and eluted [6]: 3%
 |  | 520 | 180 | HGal-8N (His6-Gal-8N, N-terminal domain of galectin-8) (from UniProt O00214 1-160) (domain or fragment) | 
600 | 1.4 | 110 | 110 | HSDsRedMGal-1C2S (His6-SNAP-DsRedM-Gal-1C2S) (from UniProt P09382 1-135) (natural protein) | Kd [3]: 140 nM; percent of applied galectin bound and eluted [6]: 4%
800 | 1.1 |  |  | HSGal-1C2S (His6-SNAP-Gal-1C2S, without fluorescent protein) (from UniProt P09382 1-135) (natural protein) | 
 |  | 110 | 70 | HSYGal-3 (His6-SNAP-yellow fluorescent protein-Gal-3) (from UniProt P17931 1-250) (natural protein) | 
 |  | 60 | 40 | HSeGFPGal-8N (His6-SNAP-eGFP-Gal-8N) (from UniProt O00214 1-160) (domain or fragment) | 
 |  |  |  | fibronectin (from human plasma) (from UniProt P02751 32-2477) (natural protein) | Kd [7]: 10000 nM; Kd [8]: 5100 nM
 |  |  |  | laminin (from Engelbreth-Holm-Swarm sarcoma) (complex) | Kd [7]: 450 nM; Kd [9]: 380 nM; Kd [10]: 69500 nM; Kd [11]: 270 nM; Kd [12]: 370 nM; Kd [8]: 270 nM
